In patent publication US20240116985A1 (published 2024):
One block for each binder: values may come before it. Starred links: 1 amine or outer side, 2 acyl side, 3 side chain; linkers in the order of their positions; H or OH if unused. Positions of bridges follow the written chain, without caps; N, C: chain ends. Non-standard residues stand in square brackets, D forms with d. Primed or numbered codes have the meaning given here. PyrS2″ = (S)-3-amino-1-((pent-4-en-1-yloxy)carbonyl)pyrrolidine-3-carboxylic acid (stapling residue), C=CCCCOC(=O)N1CC[C@@](N[*:1])(C(=O)[*:2])C1; B5(4) = 2,2-bis(4-pentenyl)glycine = 2-amino-2-(pent-4-en-1-yl)hept-6-enoic acid (stitching residue), C=CCCCC(CCCC=C)(N[*:1])C(=O)[*:2]; B5(5) = 2,2-bis(4-pentenyl)glycine, 2-amino-2-(pent-4-en-1-yl)hept-6-enoic acid (stitching residue), C=CCCCC(CCCC=C)(N[*:1])C(=O)[*:2]; PyrS2 = (S)-3-amino-1-((pent-4-en-1-yloxy)carbonyl)pyrrolidine-3-carboxylic acid, C=CCCCOC(=O)N1CC[C@@](N[*:1])(C(=O)[*:2])C1; PyrS1 = (S)-3-amino-1-((but-3-en-1-yloxy)carbonyl)pyrrolidine-3-carboxylic acid, C=CCCOC(=O)N1CC[C@@](N[*:1])(C(=O)[*:2])C1; B5(9) = 2-amino-2-(pent-4-en-1-yl)hept-6-enoic acid (2,2-bis(4-pentenyl)glycine), C=CCCCC(CCCC=C)(N[*:1])C(=O)[*:2]; PyrS = (S)-1-((allyloxy)carbonyl)-3-aminopyrrolidine-3-carboxylic acid, C=CCOC(=O)N1CC[C@@](N[*:1])(C(=O)[*:2])C1; B5(19) = 2-amino-2-(pent-4-en-1-yl)hept-6-enoic acid (bis(4-pentenyl)glycine), C=CCCCC(CCCC=C)(N[*:1])C(=O)[*:2]; MorphAsn = (S)-2-amino-4-morpholino-4-oxobutanoic acid, O=C(C[C@H](N[*:1])C(=O)[*:2])N1CCOCC1; B6 = 2-amino-2-(hex-5-en-1-yl)oct-7-enoic acid, C=CCCCCC(CCCCC=C)(N[*:1])C(=O)[*:2]; Me2Asn = listed as N4-methyl-L-asparagine, CNC(=O)C[C@H](N[*:1])C(=O)[*:2]; Phe(3-COOH) = N[C@@H](Cc1cccc(C(=O)O)c1)C(=O)O; Phe(2-CF3) = N[C@@H](Cc1ccccc1C(F)(F)F)C(=O)O; d(βAsp) = O=C(O)[C@@H](CC(=O)[*:2])N[*:1]; Bta = N[C@@H](Cc1csc2ccccc12)C(=O)O; αAllylPro = C=CC[C@@]1(C(=O)O)CCCN1; tBuAla = CC(C)(C)C[C@H](N)C(=O)O; 3Thi = N[C@@H](Cc1ccsc1)C(=O)O; Cha = N[C@@H](CC1CCCCC1)C(=O)O; S8 = C=CCCCCCC[C@](C)(N)C(=O)O; BnBoroleK = not defined here; PyrS2(4) = not defined here; TfeGA″ = not defined here; Nle = CCCC[C@H](N)C(=O)O

How the values were obtained:
[1] = biological target: T1, B-cat-Halo (beta-catenin HaloTag construct expressed in HEK293 cells) (UniProt P35222 1-781); assay: cell-based or functional assay
T1 sequence (looked up): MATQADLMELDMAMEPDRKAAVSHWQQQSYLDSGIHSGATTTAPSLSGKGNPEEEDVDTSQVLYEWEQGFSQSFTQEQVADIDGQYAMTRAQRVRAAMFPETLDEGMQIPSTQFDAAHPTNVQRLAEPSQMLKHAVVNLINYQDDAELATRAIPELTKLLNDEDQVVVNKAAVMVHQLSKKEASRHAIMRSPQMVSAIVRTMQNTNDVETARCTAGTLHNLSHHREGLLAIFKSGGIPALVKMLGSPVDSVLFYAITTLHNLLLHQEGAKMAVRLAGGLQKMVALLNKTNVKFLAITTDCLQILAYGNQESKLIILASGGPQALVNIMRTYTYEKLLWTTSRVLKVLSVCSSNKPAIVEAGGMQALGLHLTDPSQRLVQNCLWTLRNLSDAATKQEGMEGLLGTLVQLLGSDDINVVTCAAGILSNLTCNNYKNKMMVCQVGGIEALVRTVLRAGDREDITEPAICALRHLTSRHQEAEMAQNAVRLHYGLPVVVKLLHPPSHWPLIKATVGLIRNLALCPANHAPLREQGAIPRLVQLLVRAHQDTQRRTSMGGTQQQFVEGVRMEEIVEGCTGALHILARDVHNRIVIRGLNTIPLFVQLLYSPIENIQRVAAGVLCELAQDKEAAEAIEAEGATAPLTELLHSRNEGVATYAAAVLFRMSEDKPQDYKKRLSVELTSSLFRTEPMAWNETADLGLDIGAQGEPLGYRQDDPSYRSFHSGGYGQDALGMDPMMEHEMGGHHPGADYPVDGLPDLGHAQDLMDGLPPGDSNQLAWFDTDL

[2] = biological target: T2, full-length beta-Catenin (Uniprot ID P35222) (Homo sapiens (Human), UniProt P35222 1-781); assay: fluorescence polarization competition; full-length beta-catenin, competitor 5FAM-TCF4(10-53) probe
T2 construct: also called bCat; B-Catenin
T2 sequence: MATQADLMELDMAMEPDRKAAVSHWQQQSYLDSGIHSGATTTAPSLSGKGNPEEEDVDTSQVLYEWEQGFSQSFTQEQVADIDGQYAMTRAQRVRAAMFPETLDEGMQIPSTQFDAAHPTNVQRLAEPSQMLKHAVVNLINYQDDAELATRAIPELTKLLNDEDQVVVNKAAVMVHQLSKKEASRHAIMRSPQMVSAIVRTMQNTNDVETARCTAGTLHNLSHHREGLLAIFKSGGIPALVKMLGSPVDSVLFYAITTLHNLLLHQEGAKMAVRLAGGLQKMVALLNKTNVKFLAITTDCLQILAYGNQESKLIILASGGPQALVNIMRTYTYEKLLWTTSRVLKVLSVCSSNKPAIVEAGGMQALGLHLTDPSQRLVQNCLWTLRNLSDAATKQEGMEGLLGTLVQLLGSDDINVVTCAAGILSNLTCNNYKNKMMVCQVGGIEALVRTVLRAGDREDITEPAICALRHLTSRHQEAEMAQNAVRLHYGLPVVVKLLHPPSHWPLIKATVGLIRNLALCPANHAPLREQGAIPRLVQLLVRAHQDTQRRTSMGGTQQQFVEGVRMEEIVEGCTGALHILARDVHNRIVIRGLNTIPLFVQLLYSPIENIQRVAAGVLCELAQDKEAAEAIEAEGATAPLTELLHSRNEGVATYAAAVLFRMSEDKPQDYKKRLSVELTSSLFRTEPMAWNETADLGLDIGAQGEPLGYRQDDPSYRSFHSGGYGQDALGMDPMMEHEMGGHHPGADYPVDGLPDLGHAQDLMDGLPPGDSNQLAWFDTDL
How it was run: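 Data fitted to 1:1 binding model with hill slope from duplicate reads taken after 60 minutes at 20° C. in the dark.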

[3] = biological target: T3, B-cat-Halo (beta-catenin HaloTag construct expressed in HEK293 cells) (UniProt P35222 1-781); assay: cell-based or functional assay; remark: listed apart in the source
T3 sequence (looked up): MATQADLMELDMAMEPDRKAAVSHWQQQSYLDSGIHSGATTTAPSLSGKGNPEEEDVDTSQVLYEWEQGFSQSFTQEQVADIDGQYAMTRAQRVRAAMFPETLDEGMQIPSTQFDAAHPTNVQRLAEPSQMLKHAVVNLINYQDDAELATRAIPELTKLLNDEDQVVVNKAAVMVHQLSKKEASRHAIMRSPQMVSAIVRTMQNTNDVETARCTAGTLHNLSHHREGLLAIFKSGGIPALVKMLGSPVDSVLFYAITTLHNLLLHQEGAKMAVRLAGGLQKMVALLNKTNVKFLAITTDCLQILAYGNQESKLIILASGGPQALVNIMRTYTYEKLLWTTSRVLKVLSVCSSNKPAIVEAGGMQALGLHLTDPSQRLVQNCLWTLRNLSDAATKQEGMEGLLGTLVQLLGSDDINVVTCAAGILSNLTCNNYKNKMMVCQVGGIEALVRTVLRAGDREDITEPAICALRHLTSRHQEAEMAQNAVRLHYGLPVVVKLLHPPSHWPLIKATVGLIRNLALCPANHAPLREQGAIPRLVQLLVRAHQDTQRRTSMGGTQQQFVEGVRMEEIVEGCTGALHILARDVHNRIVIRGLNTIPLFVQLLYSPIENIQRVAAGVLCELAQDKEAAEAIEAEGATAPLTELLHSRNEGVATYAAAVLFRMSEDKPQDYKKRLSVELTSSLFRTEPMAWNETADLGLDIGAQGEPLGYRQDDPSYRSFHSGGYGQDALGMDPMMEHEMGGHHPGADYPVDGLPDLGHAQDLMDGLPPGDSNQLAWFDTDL

Binder: Ac-[αAllylPro]DI[B5(19)]DEAQFQ[S8]F[Bta]Q-NH2 (staple 1-4, 4-11, Stapled peptide) [I-663]
IC50 [2]: 0.043 µM

Binder: Ac-[αAllylPro]DI[B5(9)]DEAWFQ[S8]F[Bta]Q-NH2 (staple 1-4, 4-11, Stapled peptide) [I-664]
IC50 [2]: 0.996 µM

Binder: Ac-[αAllylPro]DI[B5(9)]DEAWFQ[S8]F[Bta]Q-NH2 (staple 1-4, 4-11, Stapled peptide) [I-665]
IC50 [2]: 0.923 µM

Binder: Ac-[αAllylPro]D[tBuAla][B5(4)]D[Phe(3-COOH)][Nle]AFL[PyrS2″][3Thi][Bta][tBuAla]-NH2 (staple 1-4, 4-11) [I-2193]
NanoBRET Abs IC50 [3]: 39.9 µM

Binder: Ac-[αAllylPro]D[tBuAla][B5(4)]D[TfeGA″]AAFL[PyrS2(4)][3Thi][Bta][BnBoroleK]-NH2 (staple 1-4, 4-11; reading uncertain; also: later-eluting HPLC isomer peak) [I-2187]
NanoBRET Abs IC50 [3]: 10.8 µM

B2: I-2188 (peptide)
peptide: Ac-[αAllylPro]D[tBuAla][B5(4)]D[Phe(3-COOH)][Me2Asn]AFL[PyrS2(4)][3Thi][Bta]A-NH2
modifications: staple 1-4, 4-11; reading uncertain; also: printed as Ac-PL3-Asp-Npg-B5-Asp-3COOHF-Me2Asn-Ala-Phe-Leu-PyrS2-3Thi-BztA-Ala-NH2
NanoBRET Abs IC50 [3]: 7.6 µM

Binder: Ac-[αAllylPro]DI[B5(5)][d(βAsp)]EAAFQ[S8]F[Bta]Q-NH2 (staple 1-4, 4-11, Stapled peptide) [I-674]
IC50 [2]: 5 µM

Binder: Ac-[αAllylPro]D[tBuAla][B5(4)]D[Phe(3-COOH)][Me2Asn]AFL[PyrS2″][3Thi][Bta][tBuAla]-NH2 (staple 1-4, 4-11) [I-2196]
NanoBRET Abs IC50 [3]: 39.3 µM

Now from value to binder:

NanoBRET Abs IC50 (uM); Bcat-Halo / TCF4-Luc in HEK293 cells [1]: > 20 µM
Binder: Ac-[αAllylPro]D[tBuAla][B6]D[Phe(3-COOH)]QAFL[PyrS2][Phe(2-CF3)][Bta]A-NH2 (staple 1-4, 4-11) [I-2515]

NanoBRET Abs IC50 (uM); Bcat-Halo / TCF4-Luc in HEK293 cells [1]: > 20 µM
Binder: Ac-[αAllylPro]D[tBuAla][B6]D[Phe(3-COOH)]AAFL[PyrS2][Phe(2-CF3)][Bta]Q-NH2 (staple 1-4, 4-11) [I-2513]

NanoBRET Abs IC50 (uM); Bcat-Halo / TCF4-Luc in HEK293 cells [1]: 7.8 µM
Binder: Ac-[αAllylPro]D[tBuAla][B6]D[Phe(3-COOH)]QAFL[PyrS1][Phe(2-CF3)][Bta]A-NH2 (staple 1-4, 4-11) [I-2510]

NanoBRET Abs IC50 (uM); Bcat-Halo / TCF4-Luc in HEK293 cells [1]: > 20 µM
B1: I-2523 (peptide)
peptide: Ac-[αAllylPro]N[Cha][B5(4)]DQKAFL[PyrS2]F[Bta][MorphAsn]-NH2
modifications: staple 1-4, 4-11; not fully specified (residue 7); printed as Ac-PL3-Asn-Cha-B5-Asp-Gln-[Phc]Lys-Ala-Phe-Leu-PyrS2-Phe-BztA-MorphAsn-NH2

NanoBRET Abs IC50 (uM); Bcat-Halo / TCF4-Luc in HEK293 cells [1]: > 20 µM
Binder: Ac-[αAllylPro]D[tBuAla][B6]D[Phe(3-COOH)]AAFL[PyrS][Phe(2-CF3)][Bta]Q-NH2 (staple 1-4, 4-11) [I-2518]

NanoBRET Abs IC50 (uM); Bcat-Halo / TCF4-Luc in HEK293 cells [1]: 30 µM
Binder: Ac-[αAllylPro]D[tBuAla][B6]D[Phe(3-COOH)]QAFL[PyrS2][Phe(2-CF3)][Bta]A-NH2 (staple 1-4, 4-11) [I-2517]
